Assay results from FireProtDB (doi:10.1074/jbc.m112.408906).

B1: Myocilin, Q99972 (parent)
chain: MRFFCARCCSFGPEMPAVQLLLLACLVWDVGARTAQLRKANDQSGRCQYTFSVASPNESSCPEQSQAMSVIHNLQRDSSTQRLDLEATKARLSSLESLLHQLTLDQAARPQETQEGLQRELGTLRRERDQLETQTRELETAYSNLLRDKSVLEEEKKRLRQENENLARRLESSSQEVARLRRGQCPQTRDTARAVPPGSREVSTWNLDTLAFQELKSELTEVPASRILKESPSGYLRSGEGDTGCGELVWVGEPLTLRTAETITGKYGVWMRDPKPTYPYTQETTWRIDTVGTDVRQVFEYDLISQFMQGYPSKVHILPRPLESTGAVVYSGSLYFQGAESRTVIRYELNTETVKAEKEIPGAGYHGQFPYSWGGYTDIDLAVDEAGLWVIYSTDEAKGAIVLSKLNPENLELEQTWETNIRKQSVANAFIICGTLYTVSSYTSADATVNFAYDTGTGISKTLTIPFKNRYKYSSMIDYNPLEKKLFAWDNLNMVTYDIKLSKM

Variants of: B1
Conditions: Homo sapiens, pH 6, Thermal, CD, Sodium acetate 10mM, reversible: no, structure 4WXQ, whole UniProt chain shown

Variant | Tm (CaCl2 1mM) [°C] | change of melting temperature, mutant - wild type (higher = more stable) (CaCl2 1mM) [°C] | Tm (CaCl2 10mM) [°C] | change of melting temperature, mutant - wild type (higher = more stable) (CaCl2 10mM) [°C]
MRFFCARCCSFGPEMPAVQLLLLACLVWDVGARTAQLRKANDQSGRCQYTFSVASPNESSCPEQSQAMSVIHNLQRDSSTQRLDLEATKARLSSLESLLHQLTLDQAARPQETQEGLQRELGTLRRERDQLETQTRELETAYSNLLRDKSVLEEEKKRLRQENENLARRLESSSQEVARLRRGQCPQTRDTARAVPPGSREVSTWNLDTLAFQELKSELTEVPASRILKESPSGYLRSGEGDTGCGELVWVGEPLTLRTAETITGKYGVWMRAPKPTYPYTQETTWRIDTVGTDVRQVFEYDLISQFMQGYPSKVHILPRPLESTGAVVYSGSLYFQGAESRTVIRYELNTETVKAEKEIPGAGYHGQFPYSWGGYTDIDLAVDEAGLWVIYSTDEAKGAIVLSKLNPENLELEQTWETNIRKQSVANAFIICGTLYTVSSYTSADATVNFAYDTGTGISKTLTIPFKNRYKYSSMIDYNPLEKKLFAWDNLNMVTYDIKLSKM [D273A] | 21.7 | -31.3 | 21.1 | -38.5
MRFFCARCCSFGPEMPAVQLLLLACLVWDVGARTAQLRKANDQSGRCQYTFSVASPNESSCPEQSQAMSVIHNLQRDSSTQRLDLEATKARLSSLESLLHQLTLDQAARPQETQEGLQRELGTLRRERDQLETQTRELETAYSNLLRDKSVLEEEKKRLRQENENLARRLESSSQEVARLRRGQCPQTRDTARAVPPGSREVSTWNLDTLAFQELKSELTEVPASRILKESPSGYLRSGEGDTGCGELVWVREPLTLRTAETITGKYGVWMRDPKPTYPYTQETTWRIDTVGTDVRQVFEYDLISQFMQGYPSKVHILPRPLESTGAVVYSGSLYFQGAESRTVIRYELNTETVKAEKEIPGAGYHGQFPYSWGGYTDIDLAVDEAGLWVIYSTDEAKGAIVLSKLNPENLELEQTWETNIRKQSVANAFIICGTLYTVSSYTSADATVNFAYDTGTGISKTLTIPFKNRYKYSSMIDYNPLEKKLFAWDNLNMVTYDIKLSKM [G252R] | 43 | -10 | 51.5 | -8.1
MRFFCARCCSFGPEMPAVQLLLLACLVWDVGARTAQLRKANDQSGRCQYTFSVASPNESSCPEQSQAMSVIHNLQRDSSTQRLDLEATKARLSSLESLLHQLTLDQAARPQETQEGLQRELGTLRRERDQLETQTRELETAYSNLLRDKSVLEEEKKRLRQENENLARRLESSSQEVARLRRGQCPQTRDTARAVPPGSREVSTWNLDTLAFQELKSELTEVPASRILKESPSGYLRSGEGDTGCGELVWVGEPLTLRTAETITGKYGVWMGDPKPTYPYTQETTWRIDTVGTDVRQVFEYDLISQFMQGYPSKVHILPRPLESTGAVVYSGSLYFQGAESRTVIRYELNTETVKAEKEIPGAGYHGQFPYSWGGYTDIDLAVDEAGLWVIYSTDEAKGAIVLSKLNPENLELEQTWETNIRKQSVANAFIICGTLYTVSSYTSADATVNFAYDTGTGISKTLTIPFKNRYKYSSMIDYNPLEKKLFAWDNLNMVTYDIKLSKM [R272G] | 41 | -12 | 48.6 | -11
MRFFCARCCSFGPEMPAVQLLLLACLVWDVGARTAQLRKANDQSGRCQYTFSVASPNESSCPEQSQAMSVIHNLQRDSSTQRLDLEATKARLSSLESLLHQLTLDQAARPQETQEGLQRELGTLRRERDQLETQTRELETAYSNLLRDKSVLEEEKKRLRQENENLARRLESSSQEVARLRRGQCPQTRDTARAVPPGSREVSTWNLDTLAFQELKSELTEVPASRILKESPSGYLRSGEGDTGCRELVWVGEPLTLRTAETITGKYGVWMRDPKPTYPYTQETTWRIDTVGTDVRQVFEYDLISQFMQGYPSKVHILPRPLESTGAVVYSGSLYFQGAESRTVIRYELNTETVKAEKEIPGAGYHGQFPYSWGGYTDIDLAVDEAGLWVIYSTDEAKGAIVLSKLNPENLELEQTWETNIRKQSVANAFIICGTLYTVSSYTSADATVNFAYDTGTGISKTLTIPFKNRYKYSSMIDYNPLEKKLFAWDNLNMVTYDIKLSKM [G246R] | 42.5 | -10.5 | 50.6 | -9
MRFFCARCCSFGPEMPAVQLLLLACLVWDVGARTAQLRKANDQSGRCQYTFSVASPNESSCPEQSQAMSVIHNLQRDSSTQRLDLEATKARLSSLESLLHQLTLDQAARPQETQEGLQRELGTLRRERDQLETQTRELETAYSNLLRDKSVLEEEKKRLRQENENLARRLESSSQEVARLRRGQCPQTRDTARAVPPGSREVSTWNLDTLAFQELKSELTEVPASRILKESPSGYLRSGEGDTGCGELVWVGEPLTLRTAETITGKYGVWMRDPKPTYPYTQETTWRIDTVGTDVRQVFEYDLISQFMQGYPSKVHILPRPLKSTGAVVYSGSLYFQGAESRTVIRYELNTETVKAEKEIPGAGYHGQFPYSWGGYTDIDLAVDEAGLWVIYSTDEAKGAIVLSKLNPENLELEQTWETNIRKQSVANAFIICGTLYTVSSYTSADATVNFAYDTGTGISKTLTIPFKNRYKYSSMIDYNPLEKKLFAWDNLNMVTYDIKLSKM [E323K] | 44 | -9 | 50.3 | -9.3
MRFFCARCCSFGPEMPAVQLLLLACLVWDVGARTAQLRKANDQSGRCQYTFSVASPNESSCPEQSQAMSVIHNLQRDSSTQRLDLEATKARLSSLESLLHQLTLDQAARPQETQEGLQRELGTLRRERDQLETQTRELETAYSNLLRDKSVLEEEKKRLRQENENLARRLESSSQEVARLRRGQCPQTRDTARAVPPGSREVSTWNLDTLAFQELKSELTEVPASRILKESPSGYLRSGEGDTGCGELVWVGEPLTLRTAETITGKYGVWMRDPKPTYPYTQETTWRIDTVGTDVRQVFEYDLISQFMQGYPSKVHILPRPLESTGAVVYSGSLYFQGAESRTVIRYELNTETVKAEKEIPGAVYHGQFPYSWGGYTDIDLAVDEAGLWVIYSTDEAKGAIVLSKLNPENLELEQTWETNIRKQSVANAFIICGTLYTVSSYTSADATVNFAYDTGTGISKTLTIPFKNRYKYSSMIDYNPLEKKLFAWDNLNMVTYDIKLSKM [G364V] | 45 | -8 | 51.9 | -7.7
